Assay results taken from paper doi:10.1101/2023.10.03.560691.
Ends that are not written are not given here.

What was measured:
[1] = molecular target: Phage λ Orf63, 6xHis-Flag affinity tagged (phage λ); assay: SEC-MALS
[2] = molecular target: Phage λ Orf63, 6xHis-Flag affinity tagged (phage λ); assay: BLI

Molecule | stoichiometry N [1] | Kd [2] [µM]
Phage λ Orf63, 6xHis-Flag affinity tagged (natural protein) | 2 | –
GGLVPRGSGDTKELILAIARKVKEMIKNS (designed binder, also: fused to 6xHis-tagged ubiquitin) [6xHis-tagged ubiquitin fusion protein with the designed Orf63 binding peptide] | – | > 20
